As a reminder, the Kd is the constant that tells how readily two partners part at equilibrium. A low value points to higher affinity.

The assay addresses 新型冠状病毒S1蛋白 (纯化) (SARS-CoV-2, UniProt P0DTC2 14-685).

B1: 人源抗新冠病毒中和性抗体nCoV-61 全抗体IgG (antibody, V domains shown)
VH: EVQLVESGGGLVQPGGSLRLSCEASEIIVNRNYMNWVRQAPGKGLEWVSIIYPGGSTFYADSVKGRFTISRDNSKNTMYLQMNSLRAEDTAVYYCARSYGDFYVDFWGQGTLVTVSS
VL: QSVLTQPPSVSAAPGQKVTISCSGSSSNIGNNYVSWYQQLPGTAPKLLIYDNNKRPSGIPDRFSGSKSGTSATLGITGLQTGDEADYYCGTWDSSLSAWVFGGGTKLTVLG
Molecule B1 showed a Kd of 3.33 pM.

(Values after CN112430265A (INST FOR VIRAL DISEASE CONTROL AND PREVENTION CHINESE …, dated 2021).)
